Consider 2 sequences from patent US10081661.

Holding throughout (assay): cell_activity
In series [1] the test system is ZFN SBS#47079 (human albumin). To be noted: paired with 47863; K562.
The subject of series [2] is ZFN SBS#47169 (human albumin). To be noted: paired with 47171; HepG2, 100 ng mRNA each.
Series [3] has as its system ZFN SBS#40477 (human albumin). The settings on record: paired with 47192; HepG2.
The test system of series [4] is ZFN SBS#47898 (human albumin). The settings on record: paired with 47863; K562.
For series [5], the system named is ZFN SBS#47931 (human albumin). The settings on record: paired with 47863; K562.
In series [6] the test system is ZFN SBS#47171 (human albumin). To be noted: paired with 47079; K562, 75 ng mRNA.
The subject of series [7] is ZFN SBS#47863 (human albumin). The settings on record: paired with 47898; K562.
Series [8] has as its system ZFN SBS#47192 (human albumin). The settings on record: paired with 47079; K562.
For series [9], the system named is ZFN SBS#47864 (human albumin). The settings on record: paired with 47931; HepG2.

For “CCTATCCATTGCACTATGCTTTATTTAA (double strand) [human/rhesus albumin site]”, the activity in series [1] is 86.8 % indels; in series [2], 22.2 % indels; in series [3] it was 23.7 % indels; in series [4], 91.9 % indels; in series [5], 78.9 % indels.

Take “TTTGGGATAGTTATGAATTCAATCTTCA (double strand) [human albumin site]”: the activity stood at 79.4 % indels in series [6], 91.9 % indels in series [7], 77.9 % indels in [8] and 21.3 % indels in series [9].
